Assay results published in article PMC7326492 (eLife, 2020).
Changes are numbered by the printed parent chain.

T1: human ACVR2B.Fc fusion protein (human, UniProt Q13705 19-137)
T1 construct: Probably the extracellular domain (surmise); Captured on Protein A in one SPR experiment, coupled to the chip in another
T1 sequence (looked up): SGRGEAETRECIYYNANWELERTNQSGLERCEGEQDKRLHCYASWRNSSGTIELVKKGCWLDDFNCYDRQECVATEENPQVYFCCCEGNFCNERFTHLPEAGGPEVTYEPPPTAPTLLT

T2: monomeric extracellular domain of ACVR2B (UniProt Q13705 19-137)
T2 construct: ACVR2B, extracellular domain, monomeric
T2 sequence (looked up): T1 sequence (looked up)

T3: Activin A.∆D406 (human, UniProt P08476 311-426, ∆D406)
T3 sequence: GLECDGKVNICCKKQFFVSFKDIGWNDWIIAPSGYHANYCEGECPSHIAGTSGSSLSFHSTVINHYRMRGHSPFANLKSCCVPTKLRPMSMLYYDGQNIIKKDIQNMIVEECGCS

T4: ACVR1 (UniProt Q04771 21-123)
T4 sequence (looked up): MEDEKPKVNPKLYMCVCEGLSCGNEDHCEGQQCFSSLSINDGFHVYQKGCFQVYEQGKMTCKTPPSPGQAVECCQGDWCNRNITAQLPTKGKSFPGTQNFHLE

B1: Activin A.Nod.F2TL (ligand)
chain: T3 sequence with G96N, Q97G, N98R
B2: Activin A (ligand, human, UniProt P08476 311-426, looked up)
chain: GLECDGKVNICCKKQFFVSFKDIGWNDWIIAPSGYHANYCEGECPSHIAGTSGSSLSFHSTVINHYRMRGHSPFANLKSCCVPTKLRPMSMLYYDDGQNIIKKDIQNMIVEECGCS
notes: Activin A (inhibin beta A chain), human, mature region cloned downstream of the mouse Inhba pro-peptide; the mature dimer was isolated; rhActivin A from R and D Systems is named only for the in vivo implants; also called wild-type Activin A; Activin A WT; source: CHO-K1 cells expressing human Furin, stably expressed, purified (heparin, size exclusion, C4 reverse phase)
B3: human ACVR2B.Fc fusion protein (Fc fusion)
chain: T1 sequence (looked up)
B4: Activin A.∆D406 (ligand, human, UniProt P08476 311-426, looked up)
chain: T3 sequence
notes: also called ActA.ΔD406; source: CHO-K1 cells expressing human Furin, stably expressed, purified (heparin, size exclusion, C4 reverse phase)

Columns and labels:
ACVR1 [1] = molecular target: ACVR1 (UniProt Q04771)
[2] = molecular target: B3; experiment: SPR
[3] = molecular target: B3; experiment: SPR
[4] = molecular target: T1, human ACVR2B.Fc fusion protein; experiment: SPR; Biacore 3000, CM5 chip; human ACVR2B.Fc captured on covalently immobilised Protein A; ligand 100nM-0.14 nM flowed at 100 uL/minute; 25°C; HBS-EP (10 mM Hepes, 150 mM NaCl, 3.4 mM EDTA, 0.05% polysorbate 20, pH 7.4); 1:1 binding model with mass transport limitation; details: both partners purified
[5] = molecular target: T2, monomeric extracellular domain of ACVR2B; experiment: SPR; complexes of ligand•type II receptor extracellular domain formed at 1:2.5 ratio and injected over captured ACVR1B-Fc and ACVR1-Fc; details: both partners purified
Activin A.∆D406 [6] = molecular target: T3, Activin A.∆D406; experiment: SPR
Activin A.∆D406 [7] = molecular target: T3, Activin A.∆D406; experiment: SPR; remark: listed apart in the source
ACVR1 [8] = molecular target: T4, ACVR1; experiment: cell-based or functional assay

| Kd [2] | koff [3] | binding result [4] | further results | Molecule |
| --- | --- | --- | --- | --- |
| – | – | – | IC50 of inhibition of BMP7 (12 nM)-induced Smad1/5/8 luciferase reporter signal in HEK293 cells (ACVR1 [1]): 1400 pM | Activin A (from UniProt P08476 311-426) (ligand) |
| 5.11 pM | 0.00027 s⁻¹ | – | – | B1 |
| 4.49 pM | 8.46e-05 s⁻¹ | binds | binding result [5]: binds | B2 |
| – | – | – | Kd (Activin A.∆D406 [6]): 4.62 pM; koff (Activin A.∆D406 [7]): 0.000254 s⁻¹ | B3 |
| – | – | binds | IC50 of inhibition of BMP7 (12 nM)-induced Smad1/5/8 luciferase reporter signal in HEK293 cells (ACVR1 [8]): 20000 pM | B4 |
